How the values were obtained:
[1] = target: GST-Cdc42Hs preloaded with GDP, P60953
[2] = target: GST-Cdc42Hs preloaded with GTPγS, P60953
[3] = target: GST-Rac1 preloaded with GTPγS, P63000
[4] = target: GST-RhoA preloaded with GTPγS, P61586
GST-RhoA preloaded with GTPγS, P61586, sequence (P61586 whole entry): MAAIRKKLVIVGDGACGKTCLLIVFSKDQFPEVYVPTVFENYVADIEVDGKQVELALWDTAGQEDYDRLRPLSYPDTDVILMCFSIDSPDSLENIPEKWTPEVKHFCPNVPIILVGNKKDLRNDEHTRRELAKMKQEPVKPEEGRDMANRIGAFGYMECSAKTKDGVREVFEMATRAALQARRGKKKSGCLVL

GST-Cdc42Hs preloaded with GDP, P60953, sequence (P60953 whole entry, looked up): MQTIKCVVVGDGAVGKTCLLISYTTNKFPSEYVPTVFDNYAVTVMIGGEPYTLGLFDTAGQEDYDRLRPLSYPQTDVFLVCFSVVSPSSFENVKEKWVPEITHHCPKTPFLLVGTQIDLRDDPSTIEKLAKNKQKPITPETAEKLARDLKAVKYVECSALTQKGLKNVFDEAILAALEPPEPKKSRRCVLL
GST-Cdc42Hs preloaded with GTPγS, P60953, sequence (P60953 whole entry, looked up): as above

B1: inactive PAK I holoenzyme (p60) purified from rabbit reticulocytes (protein)
chain: SDNGELEDKPPAPPVRMSSTIFSTGGKDPLSANHSLKPLPSVPEEKKPRNKIISIFSGTEKGSKKKEKERPEISPPSDFEHTIHVGFDAVTGEFTGMPEQWARLLQTSNITKLEQKKNPQAVLDVLKFYDSNTVKQKYLSFTPPEKDGFPSGAPALNTKVSETSAVVTEEDDDDEEAAPPVIAPRPDHTKSIYTRSVIDPIPAPVGDSHVDSGAKSSDKQKKKTKMTDEEIMEKLRTIVSIGDPKKKYTRYEKIGQGASGTVFTATDVALGQEVAIKQINLQKQPKKELIINEILVMKELKNPNIVNFLDSYLVGDELFVVMEYLAGGSLTDVVTETCMDEAQIAAVCRECLQALEFLHANQVIHRDIKSDNVLLGMEGSVKLTDFGFCAQITPEQSKRSTMVGTPYWMAPEVVTRKAYGPKVDIWSLGIMAIEMVEGEPPYLNENPLRALYLIATNGTPELQNPEKLSPIFRDFLNRCLEMDVEKRGSAKELLQHPFLKLAKPLSSLTPLIMAAKEAMKSNR
activity (phosphorylation of H4) [1]: 2,154 pmol/min/mg | autophosphorylation and H4 activity relative to Cdc42Hs(GTPγS) [1]: approximately 8-fold lower than those observed with Cdc42Hs(GTPγS) | stimulation of autophosphorylation [1]: 0.12 mol/mol | autophosphorylation of PAK I (autoradiography, time course) [2]: Stimulation of autophosphorylation upon addition of GST-Cdc42Hs was observed within 5 min | increased autophosphorylation of PAK I [2]: 0.97 mol/mol | stimulation of the rate of phosphorylation of H4 [2]: 18,261 pmol/min/mg | autophosphorylation of PAK I (autoradiography, time course) [3]: a slight stimulation of autophosphorylation over the basal level was observed over a 15-min period of incubation | autophosphorylation and activity (phosphorylation of H4) [4]: had no stimulatory effect on either autophosphorylation or activity | autophosphorylation of PAK I (autoradiography, time course) [4]: GST-RhoA had little effect

Source: patent publication US20020086390
